One assay deals with T1, human CD3ε/δ-His (human, UniProt P07766 23-126; P04234 22-105).
T1 construct: Bought recombinant heterodimer with His tag; also called human CD3ε/δ protein
Kind of assay: SPR, antibody captured on Protein A chip. (SPR reads the build-up and loss of mass on a sensor chip optically.)

In assay [1] the target is T2, recombinant human CD3ε-ECD His protein (human, UniProt P07766 23-126).
T2 construct: extracellular domain; also called human CD3ε-His; CD3ε antigen protein; not shown: His tag
Kind of assay: SPR (Biacore), antibody captured on Protein A chip.

T1 sequence (P07766 23-126, stated change not applied, form in doubt, chain 1 of 2): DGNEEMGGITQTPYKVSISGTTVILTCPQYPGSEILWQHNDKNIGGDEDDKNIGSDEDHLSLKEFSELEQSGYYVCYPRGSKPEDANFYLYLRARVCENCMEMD
T1 sequence (P04234 22-105, stated change not applied, form in doubt, chain 2 of 2): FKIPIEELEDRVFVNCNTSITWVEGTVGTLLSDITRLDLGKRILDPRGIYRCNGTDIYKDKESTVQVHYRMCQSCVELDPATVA
T2 sequence (P07766 23-126): as the sequence (P07766 23-126, stated change not applied, form in doubt, chain 1 of 2) above

B1: 40G5c-hIgG1 (antibody, V domains shown)
VH: EVQLVQSGAEVKKPGASVKVSCKASGYTFTNYYIHWVRQAPGQGLEWIGWIYPGDGNTKYNEKFKGRATLTADTSTSTAYLELSSLRSEDTAVYYCARDSYSNYYFDYWGQGTLVTVSS
VL: DIVMTQSPDSLAVSLGERATINCKSSQSLLNSRTRKNYLAWYQQKPGQPPKLLIYWASTRESGVPDRFSGSGSGTDFTLTISSLQAEDVAVYYCTQSFILRTFGQGTKVEIKR
Broadly, the Kd is the free concentration of one partner at which half of the binding sites on the other are occupied at equilibrium, for simple one-to-one binding. In general, koff refers to the rate constant with which the complex falls apart. The term kon denotes the second-order rate constant of association. In the assay with human CD3ε/δ-His, B1 gave a Kd of 21.3 nM, a koff of 0.0327 s⁻¹ and a kon of 1.53e+06 M⁻¹ s⁻¹. Moreover, in assay [1], the dissociation constant Kd was 0.203 nM, the koff worked out at 0.000321 s⁻¹ and the kon was found to be 1.58e+06 M⁻¹ s⁻¹.

The record behind these values is patent US20250136687A1 (SHANDONG SIMCERE BIOPHARMACEUTICAL, published 2025).
